Data published in article PMC5450233.

B1: GST–SKIP(1-310) [not stated] / HA–KHC [rat] (parent)
chain 1: MEPGEVKDRILENISLSVKKLQSYFAACEDEIPAIRNHDKVLQRLCEHLDHALLYGLQDLSSGYWVLVVHFTRREAIKQIEVLQHVATNLGRSRAWLYLALNENSLESYLRLFQENLGLLHKYYVKNALVCSHDHLTLFLTLVSGLEFIRFELDLDAPYLDLAPYMPDYYKPQYLLDFEDRLPSSVHGSDSLSLNSFNSVTSTNLEWDDSAIAPSSEDYDFGDVFPAVPSVPSTDWEDGDLTDTVSGPRSTASDLTSSKASTRSPTQRQNPFNEEPAETVSSSDTTPVHTTSQEKEEAQALDPPDACTEL
chain 2: MADPAECSIKVMCRFRPLNEAEILRGDKFIPKFKGEETVVIGQGKPYVFDRVLPPNTTQEQVYNACAKQIVKDVLEGYNGTIFAYGQTSSGKTHTMEGKLHDPQLMGIIPRIAHDIFDHIYSMDENLEFHIKVSYFEIYLDKIRDLLDVSKTNLAVHEDKNRVPYVKGCTERFVSSPEEVMDVIDEGKANRHVAVTNMNEHSSRSHSIFLINIKQENVETEKKLSGKLYLVDLAGSEKVSKTGAEGAVLDEAKNINKSLSALGNVISALAEGTKTHVPYRDSKMTRILQDSLGGNCRTTIVICCSPSVFNEAETKSTLMFGQRAKTIKNTVSVNLELTAEEWKKKYEKEKEKNKALKSVIQHLEVELNRWRNGEAVPEDEQISAKDQKNLEPCDNTPIIDNITPVVDGISAEKEKYDEEITSLYRQLDDKDDEINQQSQLAEKLKQQMLDQDELLASTRRDYEKIQEELTRLQIENEAAKDEVKEVLQALEELAVNYDQKSQEVEDKTRANEQLTDELAQKTTTLTTTQRELSQLQELSNHQKKRATEILNLLLKDLGEIGGIIGTNDVKTLADVNGVIEEEFTMARLYISKMKSEVKSLVNRSKQLESAQTDSNRKMNASERELAACQLLISQHEAKIKSLTDYMQNMEQKRRQLEESQDSLSEELAKLRAQEKMHEVSFQDKEKEHLTRLQDAEEVKKALEQQMESHREAHQKQLSRLRDEIEEKQRIIDEIRDLNQKLQLEQERLSSDYNKLKIEDQEREVKLEKLLLLNDKREQAREDLKGLEETVSRELQTLHNLRKLFVQDLTTRVKKSVELDSDDGGGSAAQKQKISFLENNLEQLTKVHKQLVRDNADLRCELPKLEKRLRATAERVKALESALKEAKENAMRDRKRYQQEVDRIKEAVRAKNMARRAHSAQIAKPIRPGHYPASSPTAVHAVRGGGGSSNSTHYQK

Variants of: B1
Test: GST pull-down, immunoblot (IB: HA) quantified
Details: with HA–KHC [rat]; lysates of 293T cells co-expressing HA-KHC and HA-KLC2 (kinesin-1 tetramer); three independent experiments; parent: 1; read off a plot

| Variant | ratio to parent |
| --- | --- |
| chain 1 D238A G239A D240A | 0.98 |
| chain 1 D220A F221A G222A | 0.38 |

Next, values leading:

| ratio to parent | Variant |
| --- | --- |
| 0.97 | chain 1 W236A E237A |
| 0.5 | chain 1 E217A D218A Y219A |
